Source: US5451369A, “Bacteriocidal surfaces and articles with attached bacteriocin” (The State of Oregon Acting By and Through The State Board …, priority 1993, dated 1995)
Where no end group is shown, it is not given here.

Legend:
[1] = tested on: Pediococcus pentosaceus strain FBB61-2; assay: Bioassay of adsorbed nisin: wafers placed face down on seeded MRS agar, inhibition zones; type: cell-based; details: hydrophilic wafers with nisin adsorbed from 0.1 to 1.0 mg/mL solutions, 4° C. 24 hours then 37° C.
Protocol: The activity of adsorbed nisin was evaluated by a bioassay performed as follows: Petri dishes (150×25 mm) containing MRS agar (Difco, Detroit, Mich.) were seeded with 0.1% v/v of a standardized overnight culture of Pediococcus pentosaceus strain FBB61-2 bacteria. Silicon wafers having hydrophilic surfaces were prepared as described above. Such wafers were prepared with and without adsorbed nisin. Wafers were placed face down directly onto the seeded agar surfaces. The Petri dishes were then incubated at 4° C. for 24 hours, then incubated at 37° C.
Referring to FIG. 2, the silicon wafers numbered 1-10 were subjected to adsorption of nisin from 0.1 to 1.0 mg/mL nisin solutions, respectively (in 0.1 mg/mL increments). […] Qualitatively, it can be seen in FIG. 2 that the amount of nisin antimicrobial activity associated with the nisin-coated wafers (as indicated by the diameters of the respective inhibition zones) corresponds to the mass of nisin that actually adsorbed to the respective wafer as shown in FIG. 1; i.e., the smallest inhibition zone corresponded with the smallest adsorbed mass of nisin.

[2] = Nisin adsorption to silicon wafers measured by ellipsometry (hydrophilic surface); type: physicochemical; details: hydrophilic silicon wafer; nisin concentration range 0.1 to 1.0 mg/mL
Text: (§1) This example is an investigation of the binding ability of nisin on hydrophilic surfaces and on such surfaces made strongly hydrophobic by silanization. As representative hydrophilic surfaces, we selected monocrystalline silicon because this material is homogeneous, has substantially no pores or surface cavities, and has optical properties amenable to analysis using a laser beam.
(§2) Optically flat, monocrystalline silicon wafers (Wacker Siltronic Corp., Portland, Oreg.) having 1-0-0 orientation and a resistivity of 0.1 to 0.16 ohm.cm were cut into 1×2 cm wafers using a tungsten knife. The wafer surfaces were polished to a mirror finish.
A first quantity of wafers was made hydrophilic by oxidation wherein the wafers were immersed in a mixture of NH4 OH:H2 O2 :H2 O (1:1:5) at 80° C. for 15 minutes. The wafers were then rinsed using distilled deionized water followed by an immersion in HCl:H2 O2 :H2 O (1:1:5) for 15 minutes at 80° C. […]
Hydrophilicity and hydrophobicity were confirmed by contact angle analysis according to McGuire, J. Food Eng. […] In brief, hydrophobicity was determined by measuring the nondispersive component of the work Wa^p required to remove water from a surface, wherein Wa^p is defined according to equation (1) in said McGuire reference. This value was gained using contact-angle methods, and all food-contact surfaces can be analyzed in this way. […]

[3] = tested on: gram-positive spoilage and pathogenic bacteria; details: various foods (dairy, meats and others); cited from earlier work
[4] = tested on: Pediococcus pentosaceus strain FBB61-2; assay: Desorption of nisin from wafers by rinsing, followed by agar-well diffusion assay; type: cell-based
Protocol: Nisin was adsorbed to hydrophilic and hydrophobic silicon wafers as described in example 1. We then attempted to desorb nisin from the wafers by placing 50 μL of 0.01M phosphate buffer (pH 6.0) containing 1% polyoxyethylene sorbitan (Tween 80) on each wafer and "agitating" the droplet over the entire wafer surface using a pipette tip. The 50 μL droplet was then transferred to 5.6-mm diameter wells that had been made in seeded agar. As controls, we also attempted to desorb nisin from nisin-coated wafers using the phosphate buffer without Tween 80.
In FIG. 3, the activity of desorbed nisin (from hydrophilic surfaces) is seen as inhibition zones in the agar-well diffusion assay. The amount of recovered nisin roughly corresponded to the relative mass of nisin initially adsorbed to the wafers, similar to the previously described relationships shown in FIGS. 1 and 2. The only exception was the inhibition zone of well 10, wherein the unusually small diameter of the inhibition zone resulted from most of the desorbed nisin being lost during manipulations.
It should be noted that the amount of nisin that became adsorbed onto the wafer surfaces was an amount sufficient for inhibition of susceptible bacteria. Commonly, about 100 Units/g are used in food products to prevent the outgrowth of gram-positive bacterial spores and vegetative cells. […]

[5] = Nisin adsorption to silicon wafers measured by ellipsometry (hydrophobic, silanized surface); type: physicochemical
Text: as §1, §2
A second quantity of wafers was made hydrophobic by silanization with dichlorodimethylsilane according to Jonsson et al., J. Colloid Interface Sci. 90:148-163 (1982) .
Hydrophilicity and hydrophobicity were confirmed by contact angle analysis according to McGuire, J. Food Eng. 12:239-247 (1990), incorporated herein by reference. In brief, hydrophobicity was determined by measuring the nondispersive component of the work Wa^p required to remove water from a surface, wherein Wa^p is defined according to equation (1) in said McGuire reference. This value was gained using contact-angle methods, and all food-contact surfaces can be analyzed in this way. […] A low value indicates strong hydrophobicity and a high value indicates strong hydrophilicity. […]

[6] = cited from earlier work
[7] = high-potency grade from Aplin and Barrett Ltd.; cited from earlier work

| Substance | diameter of inhibition zone around nisin-containing wafers [1] | adsorption plateau on hydrophilic surface [2] | control of gram-positive bacteria in foods [3] | desorption by rinsing with phosphate buffer without Tween 80 ([4]; 0.01M phosphate buffer pH 6.0, no Tween 80) | desorption by phosphate buffer containing Tween 80 ([4]; 0.01M phosphate buffer pH 6.0 with 1% Tween 80) | reversal of adsorption in more dilute solution ([5]; hydrophilic and hydrophobic wafers, 12-hour post-adsorption exposure to buffer (FIG. 1 circles)) | upper limit (plateau) of adsorbed mass of nisin ([5]; hydrophobic (silanized) silicon wafer, pH 6.0 phosphate buffer, 8 hours contact, consistent with a monolayer) | period of retained bacteriocidal activity ([6]; ambient temperatures (0°-40° C.)) | stability of activity at pH 11 ([6]; pH 11) | potency of purified dry powder on storage ([6]; refrigeration storage) | nominal nisin activity [7] |
| --- | --- | --- | --- | --- | --- | --- | --- | --- | --- | --- | --- |
| nisin (ITSISLCTPGCKTGALMGCNMKTATCHCSIHVSK; ends and bridges not checked; also: five thioether crosslinks (ring bridges), places not given here; UniProt P13068 24-57, looked up) | generally proportional to the log10 concentration of the nisin solution | did not attain a plateau value | effective in preserving these foods | resistant to desorption | able to desorb nisin | does not appear to reverse | about 0.36 mg/cm^2 | 16-24 months | can be lost rapidly | retains its potency indefinitely | 45.5×10^6 Units/g |
| Pediocin AcH (KYYGNGVTCGKHSCSVDWGKATTCIINNGAMAWATGGHQGNHKC; ends and bridges not checked; cysteine pairing not given here; UniProt P29430 19-62, looked up) [wide-spectrum bacteriocin produced by lactic-acid bacteria, first identified in 1984] |  |  | efficacious in controlling a wide range of spoilage and pathogenic gram-positive bacteria |  |  |  |  |  |  |  |  |
| Pediocin PA1 (KYYGNGVTCGKHSCSVDWGKATTCIINNGAMAWATGGHQGNHKC; ends and bridges not checked; cysteine pairing not given here; UniProt P29430 19-62, looked up) [wide-spectrum bacteriocin produced by lactic-acid bacteria] |  |  | found to control gram-positive bacterial populations |  |  |  |  |  |  |  |  |
